Results reported in the supplement of paper PMC6757056.
± gives the standard deviation of the averaged measurements.

B1: library; a variant is named by its letters at N, in order (parent)
chain: GCUGUCACCGAGAAACUGUGAAGUAUAUCUUAAACCUGGGCACUUAAAAGAUAUAUGGAGUUAGUAGUGCAACCUGCUCGGUCUGAUGAGUCCNNNNNNGGACGAAACAGC

Experiments:
[1] = variants of: B1; assay: normalized RNA/DNA level without ligand (relative to sTRSVctl = 100) (log10 (% of sTRSVctl)); HEK293T; ligand: cyclic di-GMP (c-di-GMP-II aptamer); higher = less ribozyme self-cleavage, higher mRNA level; conditions: reporter: mCherry (pCS4076), ligand present: no
In short: (§1)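 Ribozyme switch library plasmids linked to reporters were introduced into HEK293T cells at 4 µg per 6-well well, with ligand, if any, added 1 h before. Total RNA was extracted with EDTA 72 h later, reverse-transcribed, amplified, barcoded and sequenced. RNA level was computed from RNA over DNA reads relative to a spiked-in non-cleaving sequence or the top sequences, then scaled and log-transformed. The top set was 25 sequences, values were ×100 and log10, and the cutoff was ≥100 DNA reads.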

[2] = variants of: B1; assay: normalized RNA/DNA level with ligand (relative to sTRSVctl = 100) (log10 (% of sTRSVctl)); HEK293T; ligand: cyclic di-GMP (c-di-GMP-II aptamer); ligand concentration (+) RNA-Seq: 1 mM; higher = less ribozyme self-cleavage, higher mRNA level; conditions: reporter: mCherry (pCS4076), ligand present: yes
In short: as §1

Variant	normalized RNA/DNA level without ligand (log10) [1]	normalized RNA/DNA level with ligand (log10) [2]
GCUGUCACCGAGAAACUGUGAAGUAUAUCUUAAACCUGGGCACUUAAAAGAUAUAUGGAGUUAGUAGUGCAACCUGCUCGGUCUGAUGAGUCCUGGGUGGGACGAAACAGC	1.73 ± 0.04	1.86 ± 0.098
GCUGUCACCGAGAAACUGUGAAGUAUAUCUUAAACCUGGGCACUUAAAAGAUAUAUGGAGUUAGUAGUGCAACCUGCUCGGUCUGAUGAGUCCUGACAUGGACGAAACAGC	1.62 ± 0.074	1.81 ± 0.075
GCUGUCACCGAGAAACUGUGAAGUAUAUCUUAAACCUGGGCACUUAAAAGAUAUAUGGAGUUAGUAGUGCAACCUGCUCGGUCUGAUGAGUCCCUGUAAGGACGAAACAGC	1.26 ± 0.086	1.51 ± 0.1
GCUGUCACCGAGAAACUGUGAAGUAUAUCUUAAACCUGGGCACUUAAAAGAUAUAUGGAGUUAGUAGUGCAACCUGCUCGGUCUGAUGAGUCCCUGUAGGGACGAAACAGC	1.66 ± 0.051	1.84 ± 0.1
GCUGUCACCGAGAAACUGUGAAGUAUAUCUUAAACCUGGGCACUUAAAAGAUAUAUGGAGUUAGUAGUGCAACCUGCUCGGUCUGAUGAGUCCGCACGCGGACGAAACAGC	1.66 ± 0.027	1.78 ± 0.2
GCUGUCACCGAGAAACUGUGAAGUAUAUCUUAAACCUGGGCACUUAAAAGAUAUAUGGAGUUAGUAGUGCAACCUGCUCGGUCUGAUGAGUCCUUUCCAGGACGAAACAGC	1.78 ± 0.028	1.9 ± 0.13
GCUGUCACCGAGAAACUGUGAAGUAUAUCUUAAACCUGGGCACUUAAAAGAUAUAUGGAGUUAGUAGUGCAACCUGCUCGGUCUGAUGAGUCCAUCAAUGGACGAAACAGC	1.64 ± 0.026	1.77 ± 0.15
GCUGUCACCGAGAAACUGUGAAGUAUAUCUUAAACCUGGGCACUUAAAAGAUAUAUGGAGUUAGUAGUGCAACCUGCUCGGUCUGAUGAGUCCCCACGUGGACGAAACAGC	1.64 ± 0.046	1.81 ± 0.13
GCUGUCACCGAGAAACUGUGAAGUAUAUCUUAAACCUGGGCACUUAAAAGAUAUAUGGAGUUAGUAGUGCAACCUGCUCGGUCUGAUGAGUCCCCUAGAGGACGAAACAGC	1.585 ± 0.0086	1.79 ± 0.074
GCUGUCACCGAGAAACUGUGAAGUAUAUCUUAAACCUGGGCACUUAAAAGAUAUAUGGAGUUAGUAGUGCAACCUGCUCGGUCUGAUGAGUCCCUAGUCGGACGAAACAGC	1.75 ± 0.039	1.83 ± 0.055
GCUGUCACCGAGAAACUGUGAAGUAUAUCUUAAACCUGGGCACUUAAAAGAUAUAUGGAGUUAGUAGUGCAACCUGCUCGGUCUGAUGAGUCCAAGAUCGGACGAAACAGC	1.6 ± 0.084	1.74 ± 0.097
GCUGUCACCGAGAAACUGUGAAGUAUAUCUUAAACCUGGGCACUUAAAAGAUAUAUGGAGUUAGUAGUGCAACCUGCUCGGUCUGAUGAGUCCUCAUACGGACGAAACAGC	1.674 ± 0.011	1.81 ± 0.11
GCUGUCACCGAGAAACUGUGAAGUAUAUCUUAAACCUGGGCACUUAAAAGAUAUAUGGAGUUAGUAGUGCAACCUGCUCGGUCUGAUGAGUCCGCUCAGGGACGAAACAGC	1.79 ± 0.081	1.87 ± 0.15
GCUGUCACCGAGAAACUGUGAAGUAUAUCUUAAACCUGGGCACUUAAAAGAUAUAUGGAGUUAGUAGUGCAACCUGCUCGGUCUGAUGAGUCCGCCUGUGGACGAAACAGC	1.69 ± 0.043	1.88 ± 0.12
GCUGUCACCGAGAAACUGUGAAGUAUAUCUUAAACCUGGGCACUUAAAAGAUAUAUGGAGUUAGUAGUGCAACCUGCUCGGUCUGAUGAGUCCUGCUAGGGACGAAACAGC	1.71 ± 0.031	1.9 ± 0.048
GCUGUCACCGAGAAACUGUGAAGUAUAUCUUAAACCUGGGCACUUAAAAGAUAUAUGGAGUUAGUAGUGCAACCUGCUCGGUCUGAUGAGUCCUGACUGGGACGAAACAGC	1.7 ± 0.033	1.84 ± 0.11
GCUGUCACCGAGAAACUGUGAAGUAUAUCUUAAACCUGGGCACUUAAAAGAUAUAUGGAGUUAGUAGUGCAACCUGCUCGGUCUGAUGAGUCCUCACGGGGACGAAACAGC	1.82 ± 0.07	1.9 ± 0.1
GCUGUCACCGAGAAACUGUGAAGUAUAUCUUAAACCUGGGCACUUAAAAGAUAUAUGGAGUUAGUAGUGCAACCUGCUCGGUCUGAUGAGUCCCUGCUCGGACGAAACAGC	1.7 ± 0.0046	1.83 ± 0.14
GCUGUCACCGAGAAACUGUGAAGUAUAUCUUAAACCUGGGCACUUAAAAGAUAUAUGGAGUUAGUAGUGCAACCUGCUCGGUCUGAUGAGUCCUAGGGCGGACGAAACAGC	1.64 ± 0.035	1.78 ± 0.1
GCUGUCACCGAGAAACUGUGAAGUAUAUCUUAAACCUGGGCACUUAAAAGAUAUAUGGAGUUAGUAGUGCAACCUGCUCGGUCUGAUGAGUCCUACGGCGGACGAAACAGC	1.72 ± 0.033	1.84 ± 0.1
GCUGUCACCGAGAAACUGUGAAGUAUAUCUUAAACCUGGGCACUUAAAAGAUAUAUGGAGUUAGUAGUGCAACCUGCUCGGUCUGAUGAGUCCAUUGGGGGACGAAACAGC	1.54 ± 0.16	1.75 ± 0.078
GCUGUCACCGAGAAACUGUGAAGUAUAUCUUAAACCUGGGCACUUAAAAGAUAUAUGGAGUUAGUAGUGCAACCUGCUCGGUCUGAUGAGUCCACAGUCGGACGAAACAGC	1.62 ± 0.045	1.78 ± 0.11
GCUGUCACCGAGAAACUGUGAAGUAUAUCUUAAACCUGGGCACUUAAAAGAUAUAUGGAGUUAGUAGUGCAACCUGCUCGGUCUGAUGAGUCCCCUGGUGGACGAAACAGC	1.672 ± 0.0096	1.83 ± 0.13
GCUGUCACCGAGAAACUGUGAAGUAUAUCUUAAACCUGGGCACUUAAAAGAUAUAUGGAGUUAGUAGUGCAACCUGCUCGGUCUGAUGAGUCCCGAGGAGGACGAAACAGC	1.54 ± 0.027	1.65 ± 0.084
GCUGUCACCGAGAAACUGUGAAGUAUAUCUUAAACCUGGGCACUUAAAAGAUAUAUGGAGUUAGUAGUGCAACCUGCUCGGUCUGAUGAGUCCCCGACGGGACGAAACAGC	1.6 ± 0.089	1.79 ± 0.052
GCUGUCACCGAGAAACUGUGAAGUAUAUCUUAAACCUGGGCACUUAAAAGAUAUAUGGAGUUAGUAGUGCAACCUGCUCGGUCUGAUGAGUCCAGUAUCGGACGAAACAGC	1.68 ± 0.022	1.81 ± 0.13
